Data on three proteins can be found in article doi:10.1101/2021.03.05.434000 (bioRxiv, 2021).

This data set concerns the molecule itself. The data set can be described thus: crystal structure.
AALALL [NCAP segment 217-AALALL-222]: the binding result is given as “binds”.

With GQTVTK [NCAP segment 243-GQTVTK-248], the binding result is “binds”.

Consider GSQASS [NCAP segment 179-GSQASS-184], for which the binding result is reported as “binds”.
